Data taken from patent publication US20060078537A1.

Target: human CCR5 (human) (UniProt P51681)
Assay: cell-based or functional assay

Sequence of human CCR5 (human) (P51681 whole entry): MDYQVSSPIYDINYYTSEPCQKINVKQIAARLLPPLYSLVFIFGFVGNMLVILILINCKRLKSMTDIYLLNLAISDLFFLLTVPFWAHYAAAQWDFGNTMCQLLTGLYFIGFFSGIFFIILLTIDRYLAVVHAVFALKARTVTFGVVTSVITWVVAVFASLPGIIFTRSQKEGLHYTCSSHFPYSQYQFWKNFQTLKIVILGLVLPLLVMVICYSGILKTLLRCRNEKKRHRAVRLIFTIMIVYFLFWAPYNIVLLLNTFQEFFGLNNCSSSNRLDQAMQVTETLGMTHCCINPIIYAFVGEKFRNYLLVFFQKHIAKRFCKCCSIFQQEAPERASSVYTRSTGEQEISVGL

decrease of cell surface CCR5 on CHO cells expressing CCR5 (FACS, 30 minutes at 37° C.) at 5 µg/ml MC-1: 50%
B1: MC-1 anti-CCR5 monoclonal antibody (antibody, from another filing, V domains shown)
VH: QVQLQQPGAGRVRPGASVKLSCKASGYSFTSYWMNWVKQRPGQGLEWIGMIHPSDSETRLNQKFNDRATLTVDKYSSTAYIQLSSPTSEDSAVYYCARGEYYYGIFDYWGQGTTVTVSS
VL: DIQLTQSPASLSASVGETVTITCRASENIYSYLAWYQQKQGKSPQLLVYNAKTLTEGVPSRFSGSGSGTQFSLKINSLQPEDFGNYFCQHHYDTPRTFGGGTKLEIK
